Key:
[1] = target: T1, human GPR37 (hGPR37-V5, expressed in transfected HEK293 cells) (human, UniProt O15354 27-613); assay: cell-based or functional assay
T1 sequence: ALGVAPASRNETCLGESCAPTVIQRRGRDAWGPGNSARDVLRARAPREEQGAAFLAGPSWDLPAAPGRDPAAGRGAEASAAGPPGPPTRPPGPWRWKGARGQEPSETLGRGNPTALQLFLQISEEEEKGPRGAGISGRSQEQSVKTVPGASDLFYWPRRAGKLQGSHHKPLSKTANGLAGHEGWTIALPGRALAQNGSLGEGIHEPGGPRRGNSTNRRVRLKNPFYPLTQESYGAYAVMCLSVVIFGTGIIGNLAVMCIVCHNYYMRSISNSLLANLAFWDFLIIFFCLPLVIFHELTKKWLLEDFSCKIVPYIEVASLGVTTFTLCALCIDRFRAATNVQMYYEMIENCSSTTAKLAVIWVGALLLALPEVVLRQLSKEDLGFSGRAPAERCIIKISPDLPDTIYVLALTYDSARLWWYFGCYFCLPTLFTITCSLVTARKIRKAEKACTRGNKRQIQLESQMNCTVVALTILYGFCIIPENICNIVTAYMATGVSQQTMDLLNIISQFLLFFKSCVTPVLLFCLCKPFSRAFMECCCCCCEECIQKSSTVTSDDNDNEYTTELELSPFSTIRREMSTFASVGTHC

[2] = target: T2, mouse GPR37 (native, on peritoneal macrophages and in tissues of wild-type mice) (mouse, UniProt Q9QY42 27-600); assay: cell-based or functional assay
T2 sequence (looked up): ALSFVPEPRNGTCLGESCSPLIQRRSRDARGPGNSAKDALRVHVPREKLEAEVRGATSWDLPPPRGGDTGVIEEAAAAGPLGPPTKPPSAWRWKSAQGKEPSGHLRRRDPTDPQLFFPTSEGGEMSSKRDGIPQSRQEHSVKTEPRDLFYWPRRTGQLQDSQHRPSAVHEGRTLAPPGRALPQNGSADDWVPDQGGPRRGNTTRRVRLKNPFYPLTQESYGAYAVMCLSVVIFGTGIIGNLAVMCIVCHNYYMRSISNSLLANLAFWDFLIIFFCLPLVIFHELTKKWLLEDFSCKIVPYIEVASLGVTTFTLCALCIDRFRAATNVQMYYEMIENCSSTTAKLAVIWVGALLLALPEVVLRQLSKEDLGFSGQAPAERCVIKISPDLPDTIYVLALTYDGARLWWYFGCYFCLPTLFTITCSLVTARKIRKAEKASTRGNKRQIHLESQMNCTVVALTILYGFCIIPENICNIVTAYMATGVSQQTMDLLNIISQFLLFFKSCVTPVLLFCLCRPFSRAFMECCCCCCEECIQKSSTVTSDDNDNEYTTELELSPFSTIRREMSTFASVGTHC

EC50 of iCa^2+ increase in HEK293 cells transfected with human GPR37 (Fura-2AM calcium imaging) [1]: 407 nM
EC50 of iCa^2+ increase in mouse peritoneal macrophages (Fluo-4AM calcium imaging) [2]: 302 nM
B1: prosaposin-derived 14-mer peptide (TX14) (peptide)
peptide: TALIDNNATEEILY

Reference: US20210228499A1 (DUKE UNIVERSITY, published 2021)
